Measured values taken from patent publication US20210388087A1 (Chugai, published 2021).

Molecular target: T1, CD3 epsilon homodimer protein (UniProt P07766 23-126)
T1 construct: also called CD3 (CD3 epsilon)
Test: SPR, CD3 epsilon homodimer on chip, one-arm antibody as analyte;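 also: surface plasmon resonance at 25 °C with CD3 epsilon homodimer amine-coupled to a CM4 sensor chip, antibody injected as analyte, HBS-EP+ as running buffer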

T1 sequence (P07766 23-126): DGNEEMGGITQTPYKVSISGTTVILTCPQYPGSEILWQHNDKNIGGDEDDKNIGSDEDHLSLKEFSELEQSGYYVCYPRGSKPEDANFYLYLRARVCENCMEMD

KD ratio (KD of CE115HA000/KD of altered form)	Binder
0.91	CE115HA000 K52bR (antibody, human IgG1, kappa, L234A L235A, N297A, name in Kabat numbering, one-arm antibody) heavy: QVQLVESGGGVVQPGRSLRLSCAASGFTFSNAWMHWVRQAPGKGLEWVAQIKARSNNYATYYAESVKGRFTISRDDSKNSLYLQMNSLKTEDTAVYYCRYVHYGAYYGVDAWGQGTTVTVSSASTKGPSVFPLAPSSKSTSGGTAALGCLVKDYFPEPVTVSWNSGALTSGVHTFPAVLQSSGLYSLSSVVTVPSSSLGTQTYICNVNHKPSNTKVDKKVEPKSCDKTHTCPPCPAPEAAGGPSVFLFPPKPKDTLMISRTPEVTCVVVDVSHEDPEVKFNWYVDGVEVHNAKTKPREEQYASTYRVVSVLTVLHQDWLNGKEYKCKVSNKALPAPIEKTISKAKGQPREPQVYTLPPSRCELTKNQVSLSCAVKGFYPSDIAVEWESNGQPENNYKTTPPVLDSDGSFFLVSKLTVDKSRWQQGNVFSCSVMHEALHNHYTQKSLSLSPDYKDDDDK EPKSSDKTHTCPPCPAPELLGGPSVFLFPPKPKDTLMISRTPEVTCVVVDVSHEDPEVKFNWYVDGVEVHNAKTKPREEQYNSTYRVVSVLTVLHQDWLNGKEYKCKVSNKALPAPIEKTISKAKGQPREPQVCTLPPSRDELTKNQVSLWCLVKGFYPSDIAVEWESNGQPENNYKTTPPVLDSDGSFFLYSKLTVDKSRWQQGNVFSCSVMHEALHNRYTQKSLSLSP light: DIVMTQSPLSLPVTPGEPASISCRSSQSLVHSNRNTYLHWYQQKPGQAPRLLIYKVSNRFSGVPDRFSGSGSGTDFTLKISRVEAEDVGVYYCGQGTQVPYTFGQGTKLEIKRTVAAPSVFIFPPSDEQLKSGTASVVCLLNNFYPREAKVQWKVDNALQSGNSQESVTEQDSKDSTYSLSSTLTLSKADYEKHKVYACEVTHQGLSSPVTKSFNRGEC
0.62	CE115HA000 K52bQ (antibody, human IgG1, kappa, L234A L235A, N297A, name in Kabat numbering, one-arm antibody) heavy: QVQLVESGGGVVQPGRSLRLSCAASGFTFSNAWMHWVRQAPGKGLEWVAQIKAQSNNYATYYAESVKGRFTISRDDSKNSLYLQMNSLKTEDTAVYYCRYVHYGAYYGVDAWGQGTTVTVSSASTKGPSVFPLAPSSKSTSGGTAALGCLVKDYFPEPVTVSWNSGALTSGVHTFPAVLQSSGLYSLSSVVTVPSSSLGTQTYICNVNHKPSNTKVDKKVEPKSCDKTHTCPPCPAPEAAGGPSVFLFPPKPKDTLMISRTPEVTCVVVDVSHEDPEVKFNWYVDGVEVHNAKTKPREEQYASTYRVVSVLTVLHQDWLNGKEYKCKVSNKALPAPIEKTISKAKGQPREPQVYTLPPSRCELTKNQVSLSCAVKGFYPSDIAVEWESNGQPENNYKTTPPVLDSDGSFFLVSKLTVDKSRWQQGNVFSCSVMHEALHNHYTQKSLSLSPDYKDDDDK EPKSSDKTHTCPPCPAPELLGGPSVFLFPPKPKDTLMISRTPEVTCVVVDVSHEDPEVKFNWYVDGVEVHNAKTKPREEQYNSTYRVVSVLTVLHQDWLNGKEYKCKVSNKALPAPIEKTISKAKGQPREPQVCTLPPSRDELTKNQVSLWCLVKGFYPSDIAVEWESNGQPENNYKTTPPVLDSDGSFFLYSKLTVDKSRWQQGNVFSCSVMHEALHNRYTQKSLSLSP light: DIVMTQSPLSLPVTPGEPASISCRSSQSLVHSNRNTYLHWYQQKPGQAPRLLIYKVSNRFSGVPDRFSGSGSGTDFTLKISRVEAEDVGVYYCGQGTQVPYTFGQGTKLEIKRTVAAPSVFIFPPSDEQLKSGTASVVCLLNNFYPREAKVQWKVDNALQSGNSQESVTEQDSKDSTYSLSSTLTLSKADYEKHKVYACEVTHQGLSSPVTKSFNRGEC
0.43	CE115HA000 K52bN (antibody, human IgG1, kappa, L234A L235A, N297A, name in Kabat numbering, one-arm antibody) heavy: QVQLVESGGGVVQPGRSLRLSCAASGFTFSNAWMHWVRQAPGKGLEWVAQIKANSNNYATYYAESVKGRFTISRDDSKNSLYLQMNSLKTEDTAVYYCRYVHYGAYYGVDAWGQGTTVTVSSASTKGPSVFPLAPSSKSTSGGTAALGCLVKDYFPEPVTVSWNSGALTSGVHTFPAVLQSSGLYSLSSVVTVPSSSLGTQTYICNVNHKPSNTKVDKKVEPKSCDKTHTCPPCPAPEAAGGPSVFLFPPKPKDTLMISRTPEVTCVVVDVSHEDPEVKFNWYVDGVEVHNAKTKPREEQYASTYRVVSVLTVLHQDWLNGKEYKCKVSNKALPAPIEKTISKAKGQPREPQVYTLPPSRCELTKNQVSLSCAVKGFYPSDIAVEWESNGQPENNYKTTPPVLDSDGSFFLVSKLTVDKSRWQQGNVFSCSVMHEALHNHYTQKSLSLSPDYKDDDDK EPKSSDKTHTCPPCPAPELLGGPSVFLFPPKPKDTLMISRTPEVTCVVVDVSHEDPEVKFNWYVDGVEVHNAKTKPREEQYNSTYRVVSVLTVLHQDWLNGKEYKCKVSNKALPAPIEKTISKAKGQPREPQVCTLPPSRDELTKNQVSLWCLVKGFYPSDIAVEWESNGQPENNYKTTPPVLDSDGSFFLYSKLTVDKSRWQQGNVFSCSVMHEALHNRYTQKSLSLSP light: DIVMTQSPLSLPVTPGEPASISCRSSQSLVHSNRNTYLHWYQQKPGQAPRLLIYKVSNRFSGVPDRFSGSGSGTDFTLKISRVEAEDVGVYYCGQGTQVPYTFGQGTKLEIKRTVAAPSVFIFPPSDEQLKSGTASVVCLLNNFYPREAKVQWKVDNALQSGNSQESVTEQDSKDSTYSLSSTLTLSKADYEKHKVYACEVTHQGLSSPVTKSFNRGEC

Further lines, the binder ahead of its results:

Binder	KD ratio (KD of CE115HA000/KD of altered form)
CE115HA000 K52bA (antibody, human IgG1, kappa, L234A L235A, N297A, name in Kabat numbering, one-arm antibody) heavy: QVQLVESGGGVVQPGRSLRLSCAASGFTFSNAWMHWVRQAPGKGLEWVAQIKAASNNYATYYAESVKGRFTISRDDSKNSLYLQMNSLKTEDTAVYYCRYVHYGAYYGVDAWGQGTTVTVSSASTKGPSVFPLAPSSKSTSGGTAALGCLVKDYFPEPVTVSWNSGALTSGVHTFPAVLQSSGLYSLSSVVTVPSSSLGTQTYICNVNHKPSNTKVDKKVEPKSCDKTHTCPPCPAPEAAGGPSVFLFPPKPKDTLMISRTPEVTCVVVDVSHEDPEVKFNWYVDGVEVHNAKTKPREEQYASTYRVVSVLTVLHQDWLNGKEYKCKVSNKALPAPIEKTISKAKGQPREPQVYTLPPSRCELTKNQVSLSCAVKGFYPSDIAVEWESNGQPENNYKTTPPVLDSDGSFFLVSKLTVDKSRWQQGNVFSCSVMHEALHNHYTQKSLSLSPDYKDDDDK EPKSSDKTHTCPPCPAPELLGGPSVFLFPPKPKDTLMISRTPEVTCVVVDVSHEDPEVKFNWYVDGVEVHNAKTKPREEQYNSTYRVVSVLTVLHQDWLNGKEYKCKVSNKALPAPIEKTISKAKGQPREPQVCTLPPSRDELTKNQVSLWCLVKGFYPSDIAVEWESNGQPENNYKTTPPVLDSDGSFFLYSKLTVDKSRWQQGNVFSCSVMHEALHNRYTQKSLSLSP light: DIVMTQSPLSLPVTPGEPASISCRSSQSLVHSNRNTYLHWYQQKPGQAPRLLIYKVSNRFSGVPDRFSGSGSGTDFTLKISRVEAEDVGVYYCGQGTQVPYTFGQGTKLEIKRTVAAPSVFIFPPSDEQLKSGTASVVCLLNNFYPREAKVQWKVDNALQSGNSQESVTEQDSKDSTYSLSSTLTLSKADYEKHKVYACEVTHQGLSSPVTKSFNRGEC	0.58
CE115HA000 K52bL (antibody, human IgG1, kappa, L234A L235A, N297A, name in Kabat numbering, one-arm antibody) heavy: QVQLVESGGGVVQPGRSLRLSCAASGFTFSNAWMHWVRQAPGKGLEWVAQIKALSNNYATYYAESVKGRFTISRDDSKNSLYLQMNSLKTEDTAVYYCRYVHYGAYYGVDAWGQGTTVTVSSASTKGPSVFPLAPSSKSTSGGTAALGCLVKDYFPEPVTVSWNSGALTSGVHTFPAVLQSSGLYSLSSVVTVPSSSLGTQTYICNVNHKPSNTKVDKKVEPKSCDKTHTCPPCPAPEAAGGPSVFLFPPKPKDTLMISRTPEVTCVVVDVSHEDPEVKFNWYVDGVEVHNAKTKPREEQYASTYRVVSVLTVLHQDWLNGKEYKCKVSNKALPAPIEKTISKAKGQPREPQVYTLPPSRCELTKNQVSLSCAVKGFYPSDIAVEWESNGQPENNYKTTPPVLDSDGSFFLVSKLTVDKSRWQQGNVFSCSVMHEALHNHYTQKSLSLSPDYKDDDDK EPKSSDKTHTCPPCPAPELLGGPSVFLFPPKPKDTLMISRTPEVTCVVVDVSHEDPEVKFNWYVDGVEVHNAKTKPREEQYNSTYRVVSVLTVLHQDWLNGKEYKCKVSNKALPAPIEKTISKAKGQPREPQVCTLPPSRDELTKNQVSLWCLVKGFYPSDIAVEWESNGQPENNYKTTPPVLDSDGSFFLYSKLTVDKSRWQQGNVFSCSVMHEALHNRYTQKSLSLSP light: DIVMTQSPLSLPVTPGEPASISCRSSQSLVHSNRNTYLHWYQQKPGQAPRLLIYKVSNRFSGVPDRFSGSGSGTDFTLKISRVEAEDVGVYYCGQGTQVPYTFGQGTKLEIKRTVAAPSVFIFPPSDEQLKSGTASVVCLLNNFYPREAKVQWKVDNALQSGNSQESVTEQDSKDSTYSLSSTLTLSKADYEKHKVYACEVTHQGLSSPVTKSFNRGEC	0.61
CE115HA000 K52bD (antibody, human IgG1, kappa, L234A L235A, N297A, name in Kabat numbering, one-arm antibody) heavy: QVQLVESGGGVVQPGRSLRLSCAASGFTFSNAWMHWVRQAPGKGLEWVAQIKADSNNYATYYAESVKGRFTISRDDSKNSLYLQMNSLKTEDTAVYYCRYVHYGAYYGVDAWGQGTTVTVSSASTKGPSVFPLAPSSKSTSGGTAALGCLVKDYFPEPVTVSWNSGALTSGVHTFPAVLQSSGLYSLSSVVTVPSSSLGTQTYICNVNHKPSNTKVDKKVEPKSCDKTHTCPPCPAPEAAGGPSVFLFPPKPKDTLMISRTPEVTCVVVDVSHEDPEVKFNWYVDGVEVHNAKTKPREEQYASTYRVVSVLTVLHQDWLNGKEYKCKVSNKALPAPIEKTISKAKGQPREPQVYTLPPSRCELTKNQVSLSCAVKGFYPSDIAVEWESNGQPENNYKTTPPVLDSDGSFFLVSKLTVDKSRWQQGNVFSCSVMHEALHNHYTQKSLSLSPDYKDDDDK EPKSSDKTHTCPPCPAPELLGGPSVFLFPPKPKDTLMISRTPEVTCVVVDVSHEDPEVKFNWYVDGVEVHNAKTKPREEQYNSTYRVVSVLTVLHQDWLNGKEYKCKVSNKALPAPIEKTISKAKGQPREPQVCTLPPSRDELTKNQVSLWCLVKGFYPSDIAVEWESNGQPENNYKTTPPVLDSDGSFFLYSKLTVDKSRWQQGNVFSCSVMHEALHNRYTQKSLSLSP light: DIVMTQSPLSLPVTPGEPASISCRSSQSLVHSNRNTYLHWYQQKPGQAPRLLIYKVSNRFSGVPDRFSGSGSGTDFTLKISRVEAEDVGVYYCGQGTQVPYTFGQGTKLEIKRTVAAPSVFIFPPSDEQLKSGTASVVCLLNNFYPREAKVQWKVDNALQSGNSQESVTEQDSKDSTYSLSSTLTLSKADYEKHKVYACEVTHQGLSSPVTKSFNRGEC	0.56
